Laboratory results published in patent US20110054149A1 (published 2011).
Where a chain is given by its changes, count along the chain named.

T1: GST-human NOGO-A56 (human, UniProt Q9NQC3 586-785)
T1 construct: also called hNOGO; recombinant human NOGO; not shown: Glutathione S-transferase (GST) tag encoded by vector pGEX-6P1, N-terminal to the NOGO-A fragment; the tag and linker se
T1 sequence: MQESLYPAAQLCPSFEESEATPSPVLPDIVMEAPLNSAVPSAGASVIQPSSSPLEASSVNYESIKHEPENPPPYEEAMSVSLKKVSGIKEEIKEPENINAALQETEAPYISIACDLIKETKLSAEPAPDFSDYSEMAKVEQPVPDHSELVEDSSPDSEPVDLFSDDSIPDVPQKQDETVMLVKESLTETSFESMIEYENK

B1: HcLc (chimera of 2A10: murine 2A10 VH and VL with human IgG constant regions) (antibody, V domains shown)
VH: QVQLQQPGTELVKPGASVKLSCKASGYTFTSYWMHWVKQRPGQGLEWIGNINPSNGGTNYNEKFKSKATLTVDKSSSTAYMQLSSLTSEDSAVYYCELGQGYWGQGTLVTVSS
VL: DIVITQDELSNPVTSGESVSISCRSSKSLLYKDGKTYLNWFLQRPGQSPQLLIYLMSTRASGVSDRFSGSGSGTDFTLEISRVKAEDVGVYYCQQLVEYPLTFGAGTKLELKR
notes: also called 2A10 chimeric antibody; the chimera
B2: H1L11 (antibody, human IgG1, kappa, V domains shown)
VH: QVQLVQSGAEVKKPGASVKVSCKASGYTFTSYWMHWVRQAPGQGLEWMGNINPSNGGTNYNEKFKSRVTMTRDTSTSTVYMELSSLRSEDTAVYYCELGQGYWGQGTLVTVSS
VL: DIVITQSPLSLPVTLGQPASISCRSSKSLLYKDGKTYLNWFQQRPGQSPQLLIYLMSTRASGVPDRFSGGGSGTDFTLKISRVEAEDVGVYYCQQLVEYPLTFGQGTKLEIKR
notes: human gamma-1 mutated constant region, human kappa
B3: H6L13 (antibody, human IgG1, kappa, V domains shown)
VH: B2 VH with M48I, V68A, V79A
VL: B2 VL with I4M
notes: Humanised 2A10; human gamma-1 mutated constant region, human kappa; also called H6L13 FL
B4: H14L16 (antibody, human IgG1, kappa, V domains shown)
VH: B2 VH with K12V, V20L, R38K, M48I, V68A, M70L, V79A
VL: B2 VL with I4M, L11N, A19V, Q42L
notes: Humanised 2A10; human gamma-1 mutated constant region, human kappa
B5: H14L18 (antibody, human IgG1, kappa, V domains shown)
VH: B2 VH with K12V, V20L, R38K, M48I, V68A, M70L, V79A
VL: B2 VL with I4M, S7D, L11N, A19V, Q42L, P64S, G70S
notes: as for B4
B6: H16L16 (antibody, human IgG1, kappa)
heavy: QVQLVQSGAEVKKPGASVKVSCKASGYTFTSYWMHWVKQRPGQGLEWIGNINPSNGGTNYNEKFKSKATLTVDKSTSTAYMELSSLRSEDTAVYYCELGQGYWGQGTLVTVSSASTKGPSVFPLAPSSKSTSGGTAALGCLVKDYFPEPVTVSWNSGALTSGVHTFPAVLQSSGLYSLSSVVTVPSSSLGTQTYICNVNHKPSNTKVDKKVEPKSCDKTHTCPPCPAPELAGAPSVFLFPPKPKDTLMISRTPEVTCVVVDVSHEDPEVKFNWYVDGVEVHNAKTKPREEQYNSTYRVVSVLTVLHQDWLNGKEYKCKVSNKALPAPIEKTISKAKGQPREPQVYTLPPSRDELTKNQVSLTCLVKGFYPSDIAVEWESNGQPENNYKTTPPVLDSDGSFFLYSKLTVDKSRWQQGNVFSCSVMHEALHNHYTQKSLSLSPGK
light: DIVMTQSPLSNPVTLGQPVSISCRSSKSLLYKDGKTYLNWFLQRPGQSPQLLIYLMSTRASGVPDRFSGGGSGTDFTLKISRVEAEDVGVYYCQQLVEYPLTFGQGTKLEIKRTVAAPSVFIFPPSDEQLKSGTASVVCLLNNFYPREAKVQWKVDNALQSGNSQESVTEQDSKDSTYSLSSTLTLSKADYEKHKVYACEVTHQGLSSPVTKSFNRGEC
notes: Humanised 2A10; human gamma-1 mutated constant region, human kappa; also called H16L16 FL
B7: murine monoclonal antibody 2A10 (antibody, V domains shown)
VH: B1 VH with L108T, V109L
VL: DIVITQDELSNPVTSGESVSISCRSSKSLLYKDGKTYLNWFLQRPGQSPQLLIYLMSTRASGVSDRFSGSGSGTDFTLEISRVKAEDVGVYYCQQLVEYPLTFGAGTKLELK
notes: Murine antibody; also called donor antibody
B8: H6Lc (antibody, human IgG1, kappa, V domains shown)
VH: B2 VH with M48I, V68A, V79A
VL: B1 VL
notes: Humanised heavy chain H6 paired with chimeric light chain Lc; For the light chain start see the note on HcLc
B9: H16L18 (antibody, human IgG1, kappa, V domains shown)
VH: B2 VH with R38K, A40R, M48I, R67K, V68A, M70L, R72V, T74K, V79A
VL: B2 VL with I4M, S7D, L11N, A19V, Q42L, P64S, G70S
notes: Humanised 2A10; human gamma-1 mutated constant region, human kappa; also called H16L18 FL
B10: H18L16 (antibody, human IgG1, kappa, V domains shown)
VH: B1 VH with Q5V, P7S, T9A, L11V, Q82E, T87R
VL: B2 VL with I4M, L11N, A19V, Q42L
notes: Humanised 2A10; human gamma-1 mutated constant region, human kappa; also called H18L16 FL
B11: H15L18 (antibody, human IgG1, kappa, V domains shown)
VH: B1 VH with Q5V, P7S, T9A, L11V, K74T, Q82E, T87R
VL: B2 VL with I4M, S7D, L11N, A19V, Q42L, P64S, G70S
notes: Humanised 2A10; tested as CHO-K1 transfection supernatant; Human gamma-1 mutated constant region, human kappa
B12: H16L13 (antibody, human IgG1, kappa)
heavy: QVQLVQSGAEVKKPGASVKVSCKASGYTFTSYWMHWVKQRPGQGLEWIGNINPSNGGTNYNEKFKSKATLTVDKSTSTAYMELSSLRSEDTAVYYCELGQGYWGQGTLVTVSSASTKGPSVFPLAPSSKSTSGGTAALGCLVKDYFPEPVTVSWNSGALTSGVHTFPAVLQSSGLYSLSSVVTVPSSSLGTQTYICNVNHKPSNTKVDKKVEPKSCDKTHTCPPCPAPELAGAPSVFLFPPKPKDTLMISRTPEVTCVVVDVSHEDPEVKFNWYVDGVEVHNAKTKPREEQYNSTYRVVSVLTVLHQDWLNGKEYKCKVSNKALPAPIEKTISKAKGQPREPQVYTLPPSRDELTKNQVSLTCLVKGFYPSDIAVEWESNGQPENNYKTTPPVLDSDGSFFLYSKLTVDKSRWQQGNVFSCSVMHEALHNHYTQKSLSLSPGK
light: B6 light with N11L, V19A, L42Q
notes: as for B11
B13: H17L13 (antibody, human IgG1, kappa)
heavy: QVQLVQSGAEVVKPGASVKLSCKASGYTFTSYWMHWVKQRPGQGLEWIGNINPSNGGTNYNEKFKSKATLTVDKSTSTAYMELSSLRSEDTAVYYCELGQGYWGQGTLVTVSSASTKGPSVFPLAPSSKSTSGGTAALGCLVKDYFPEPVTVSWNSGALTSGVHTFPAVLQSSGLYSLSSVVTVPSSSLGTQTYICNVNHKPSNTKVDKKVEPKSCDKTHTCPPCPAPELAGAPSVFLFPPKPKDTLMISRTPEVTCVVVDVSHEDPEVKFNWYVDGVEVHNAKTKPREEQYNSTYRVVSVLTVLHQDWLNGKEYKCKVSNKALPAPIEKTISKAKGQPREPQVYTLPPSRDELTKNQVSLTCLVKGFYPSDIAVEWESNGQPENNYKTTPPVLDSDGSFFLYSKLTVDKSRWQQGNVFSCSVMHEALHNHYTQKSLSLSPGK
light: B6 light with N11L, V19A, L42Q
notes: as for B11
B14: H18L13 (antibody, human IgG1, kappa, V domains shown)
VH: B1 VH with Q5V, P7S, T9A, L11V, Q82E, T87R
VL: B2 VL with I4M
notes: as for B11
B15: H18L18 (antibody, human IgG1, kappa, V domains shown)
VH: B1 VH with Q5V, P7S, T9A, L11V, Q82E, T87R
VL: B2 VL with I4M, S7D, L11N, A19V, Q42L, P64S, G70S
notes: as for B11

target: T1, GST-human NOGO-A56; test: SPR (Biacore 3000), GST-human NOGO-A56 on CM5 chip, antibody as analyte; single experiment
Description: (§1) The binding kinetics of the anti-NOGO monoclonal antibody (mAb) to recombinantly expressed human NOGO-A (GST-human NOGO-A56) was analysed using the Biacore3000 biosensor. The hNOGO-A chip was prepared as follows:
(§2) hNOGO (GST-human NOGO-A56) was immobilised to a CM5 chip by primary amine coupling using the Biacore Wizard program designed for targeted immobilisation levels. The CM5 sensor surface was activated by passing a solution of 50 mM N-hydroxy-succinimide (NHS) and 200 mM N-ethyl-N′-dimethylaminopropyl […] (EDC). Then hNOGO in sodium acetate buffer, pH5.0 or pH 4.5, was passed over the chip and immobilised. After immobilisation was complete any still activated esters were blocked by an injection of 1M ethanolamine hydrochloride, pH8.5.
(§3) The anti-NOGO mAbs were diluted down in HBS-EP (10 mM HEPES, pH 7.4, 150 mM NaCl, 3 mM EDTA, and 0.005% P-20 surfactant) and binding studies were carried out at range of defined antibody concentrations. All runs were referenced against a blanked sensor surface (one that had been activated and blocked as described earlier but had no addition of ligand). Analysis of binding was carried out using the BIAevaluation kinetic analysis software version 4.1. Biacore analysis of other antibodies of the invention essentially followed the same protocol as described herein.

First: B1
Second: B3
The Kd of the first is 4.6-fold lower: 1.6 nM for the first, 7.3 nM for the second.

B4 and B5 are the same in Kd: 3.6 nM for the first, 3.6 nM for the second.

In the case of B6, the Kd is reported as 1 nM.

Compared with B1, B2 is 6.9-fold higher in koff: 0.00412 s⁻¹ for the first, 0.0284 s⁻¹ for the second.

First: B3
Second: B4
The koff of the first is 1.8-fold higher: 0.013 s⁻¹ for the first, 0.00739 s⁻¹ for the second.

First: B5
Second: B6
The koff of the first is 1.5-fold higher: 0.00869 s⁻¹ for the first, 0.00569 s⁻¹ for the second.

Going from B1 to B2, the kon falls from 2.62e+06 M⁻¹ s⁻¹ to 1.33e+06 M⁻¹ s⁻¹ (2-fold).

B3 and B4 are within 1.5-fold of each other in kon: 1.77e+06 M⁻¹ s⁻¹ for the first, 2.05e+06 M⁻¹ s⁻¹ for the second.

Going from B5 to B6, the kon rises from 2.41e+06 M⁻¹ s⁻¹ to 5.47e+06 M⁻¹ s⁻¹ (2.3-fold).

target: T1, GST-human NOGO-A56; test: as above; remark: another data set of the same source
Description: as §1, §2, §3

For B3, the Kd was 7.9 nM.

Work on B3 yielded a koff of 0.0233 s⁻¹.

B3 was tested, and the kon was 2.95e+06 M⁻¹ s⁻¹.

target: T1, GST-human NOGO-A56; test: SPR (BiaCore kinetic analysis), told in the summary section

B7 showed a Kd of roughly 1 nM.

target: T1, GST-human NOGO-A56; test: SPR (Biacore 3000), GST-human NOGO-A56 on CM5 chip, antibody as analyte; mean (SD) of two experiments
Description: as §1, §2, §3

Going from B1 to B8, the Kd rises from 0.995 nM to 2.21 nM (2.2-fold). The first binds more tightly here.

B1 and B8 are within 1.5-fold of each other in koff: 0.00346 s⁻¹ for the first, 0.00284 s⁻¹ for the second.

Compared with B1, B8 is 1.6-fold lower in kon: 3.52e+06 M⁻¹ s⁻¹ for the first, 2.17e+06 M⁻¹ s⁻¹ for the second.

target: T1, GST-human NOGO-A56; test: SPR (Biacore 3000), GST-human NOGO-A56 amine-coupled to CM5 chip, antibody as analyte; mean (SD) of four experiments
Description: as §1, §2, §3

First: B1
Second: B2
The Kd of the first is 13-fold lower: 1.41 nM for the first, 18.6 nM for the second. The first binds more tightly here.

Going from B3 to B6, the Kd falls from 7.68 nM to 1.26 nM (6.1-fold).

B9 and B10 are within 1.5-fold of each other in Kd: 1.33 nM for the first, 1.62 nM for the second.

Going from B1 to B2, the koff rises from 0.00378 s⁻¹ to 0.0314 s⁻¹ (8.3-fold).

Compared with B3, B6 is 2.5-fold lower in koff: 0.0137 s⁻¹ for the first, 0.00554 s⁻¹ for the second.

B9 and B10 are within 1.5-fold of each other in koff: 0.00552 s⁻¹ for the first, 0.00586 s⁻¹ for the second.

Compared with B1, B2 is 1.6-fold lower in kon: 2.7e+06 M⁻¹ s⁻¹ for the first, 1.73e+06 M⁻¹ s⁻¹ for the second.

Compared with B3, B6 is 2.4-fold higher in kon: 1.82e+06 M⁻¹ s⁻¹ for the first, 4.37e+06 M⁻¹ s⁻¹ for the second.

B9 and B10 are within 1.5-fold of each other in kon: 4.18e+06 M⁻¹ s⁻¹ for the first, 3.64e+06 M⁻¹ s⁻¹ for the second.

target: T1, GST-human NOGO-A56; test: SPR off-rate ranking (Biacore), CHO-K1 transfection supernatant over GST-human NOGO-A56 chip; mean (SD) of three experiments
Description: as §2
(§4) The hNOGO chip was prepared as for kinetic analysis. Cell supernatants where taken directly from transient transfections of CHO—K1 cells. These were passed directly over the sensor surface and the interaction measured. A mock transfected cell supernatant was used for double referencing to remove any artefacts due to the tissue culture media. All runs were referenced against a blanked sensor surface (one that had been activated and blocked as described earlier but had no addition of ligand). Analysis of binding was carried out using the BIAevaluation kinetic analysis software version 4.1.

Going from B2 to B3, the koff falls from 0.0403 s⁻¹ to 0.0173 s⁻¹ (2.3-fold).

B6 and B9 are within 1.5-fold of each other in koff: 0.00664 s⁻¹ for the first, 0.00609 s⁻¹ for the second.

target: T1, GST-human NOGO-A56; test: SPR off-rate ranking (Biacore), CHO-K1 transfection supernatant over GST-human NOGO-A56 chip; mean (SD) of two experiments
Description: as §2, §4

Compared with B1, B10 is 1.8-fold higher in koff: 0.00376 s⁻¹ for the first, 0.00687 s⁻¹ for the second.

target: T1, GST-human NOGO-A56; test: SPR off-rate ranking (Biacore), CHO-K1 transfection supernatant over GST-human NOGO-A56 chip; single experiment
Description: as §2, §4

B4 and B5 are within 1.5-fold of each other in koff: 0.0089 s⁻¹ for the first, 0.00835 s⁻¹ for the second.

Compared with B11, B12 is 1.5-fold higher in koff: 0.00594 s⁻¹ for the first, 0.00907 s⁻¹ for the second.

B13 and B14 are within 1.5-fold of each other in koff: 0.00931 s⁻¹ for the first, 0.00907 s⁻¹ for the second.

Binder B15 has a koff of 0.0058 s⁻¹.
